Experimental data published in PMC5727386.
Positions count from the first letter of the chain named. Names may count otherwise. Values belong to the binder of their own block, whether it stands above or below them.

Assays:
[1] = molecular target: monobody Mb(Bcr-PH_4), displayed on yeast surface; experiment: flow cytometry on cells; monobody displayed on yeast surface; biotinylated target 10 nM to 1 uM in TBS with 0.1% BSA, 30 min at RT; streptavidin-DyLight650; 1:1 binding model; apparent Kd
[2] = molecular target: Tyrosine phosphatase Sts1, Q8BGG7; experiment: co-immunoprecipitation (anti-Bcr-Abl/Abl IP, Sts1 immunoblot, quantified); conditions: chain shown with the change; BaF3 cells stably transduced with the Bcr-Abl variants; parent: est. 1.0; read off a plot
Chain of Tyrosine phosphatase Sts1, Q8BGG7 (Q8BGG7 whole entry): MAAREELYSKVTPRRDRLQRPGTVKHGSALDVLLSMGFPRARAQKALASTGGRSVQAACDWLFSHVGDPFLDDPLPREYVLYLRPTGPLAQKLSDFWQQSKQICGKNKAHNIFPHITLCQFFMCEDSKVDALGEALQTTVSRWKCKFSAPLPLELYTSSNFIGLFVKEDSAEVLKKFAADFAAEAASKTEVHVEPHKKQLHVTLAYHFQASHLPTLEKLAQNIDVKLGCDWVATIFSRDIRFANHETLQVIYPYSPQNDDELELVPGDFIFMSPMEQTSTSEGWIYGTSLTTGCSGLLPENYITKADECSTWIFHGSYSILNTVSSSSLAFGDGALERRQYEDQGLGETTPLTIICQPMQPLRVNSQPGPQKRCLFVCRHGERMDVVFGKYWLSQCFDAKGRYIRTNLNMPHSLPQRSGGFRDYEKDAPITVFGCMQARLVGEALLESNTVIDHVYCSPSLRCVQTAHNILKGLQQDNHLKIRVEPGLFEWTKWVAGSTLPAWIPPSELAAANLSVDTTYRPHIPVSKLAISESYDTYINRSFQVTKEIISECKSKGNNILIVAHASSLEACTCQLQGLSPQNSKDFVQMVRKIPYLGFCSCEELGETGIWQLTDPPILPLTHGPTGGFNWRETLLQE

Kd [1]: 33 nM
B1: biotinylated Bcr-Abl PH domain (Avi-tag) (domain or fragment)
chain: GEHRQLLKDSFMVELVEGARKLRHVFLFTDLLLCTKLKKQSGGKTQQYDCKWYIPLTDLSFQMVDELEAVPNIPLVPDEELDALKIKISQIKNDIQREKRANKGSKATERLKKKLSEQESLLLLMSPSMAFRVHSRNGKSYTFLISSDYERAEWRENIREQQKKCFRSFSLTSVELQMLTNSCVKLQTVH
modifications: biotin on the Avi-tag

ratio to parent [2]: 0.34
B2: Bcr-Abl p210, P11274 R726A (protein)
chain: MVDPVGFAEAWKAQFPDSEPPRMELRSVGDIEQELERCKASIRRLEQEVNQERFRMIYLQTLLAKEKKSYDRQRWGFRRAAQAPDGASEPRASASRPQPAPADGADPPPAEEPEARPDGEGSPGKARPGTARRPGAAASGERDDRGPPASVAALRSNFERIRKGHGQPGADAEKPFYVNVEFHHERGLVKVNDKEVSDRISSLGSQAMQMERKKSQHGAGSSVGDASRPPYRGRSSESSCGVDGDYEDAELNPRFLKDNLIDANGGSRPPWPPLEYQPYQSIYVGGMMEGEGKGPLLRSQSTSEQEKRLTWPRRSYSPRSFEDCGGGYTPDCSSNENLTSSEEDFSSGQSSRVSPSPTTYRMFRDKSRSPSQNSQQSFDSSSPPTPQCHKRHRHCPVVVSEATIVGVRKTGQIWPNDGEGAFHGDADGSFGTPPGYGCAADRAEEQRRHQDGLPYIDDSPSSSPHLSSKGRGSRDALVSGALESTKASELDLEKGLEMRKWVLSGILASEETYLSHLEALLLPMKPLKAAATTSQPVLTSQQIETIFFKVPELYEIHKEFYDGLFPRVQQWSHQQRVGDLFQKLASQLGVYRAFVDNYGVAMEMAEKCCQANAQFAEISENLRARSNKDAKDPTTKNSLETLLYKPVDRVTRSTLVLHDLLKHTPASHPDHPLLQDALRISQNFLSSINEEITPRRQSMTVKKGEHRQLLKDSFMVELVEGARKLAHVFLFTDLLLCTKLKKQSGGKTQQYDCKWYIPLTDLSFQMVDELEAVPNIPLVPDEELDALKIKISQIKNDIQREKRANKGSKATERLKKKLSEQESLLLLMSPSMAFRVHSRNGKSYTFLISSDYERAEWRENIREQQKKCFRSFSLTSVELQMLTNSCVKLQTVHSIPLTINKEDDESPGLYGFLNVIVHSATGFKQSSNLYCTLEVDSFGYFVNKAKTRVYRDTAEPNWNEEFEIELEGSQTLRILCYEKCYNKTKIPKEDGESTDRLMGKGQVQLDPQALQDRDWQRTVIAMNGIEVKLSVKFNSREFSLKRMPSRKQTGVFGVKIAVVTKRERSKVPYIVRQCVEEIERRGMEEVGIYRVSGVATDIQALKAAFDVNNKDVSVMMSEMDVNAIAGTLKLYFRELPEPLFTDEFYPNFAEGIALSDPVAKESCMLNLLLSLPEANLLTFLFLLDHLKRVAEKEAVNKMSLHNLATVFGPTLLRPSEKESKLPANPSQPITMTDSWSLEVMSQVQVLLYFLQLEAIPAPDSKRQSILFSTEV

ratio to parent [2]: 0.53
B3: Bcr-Abl p210, P11274 R723A; K724A (protein)
chain: B2 chain with R723A, K724A, A726R
